According to publication PMC9306000:

Substrate: CC(C)=C[C@@H]1[C@@H](C(=O)SCCNC(=O)CCNC(=O)[C@H](O)C(C)(C)COP(=O)(O)OP(=O)(O)OC[C@H]2O[C@@H](n3cnc4c(N)ncnc43)[C@H](O)[C@@H]2OP(=O)(O)O)C1(C)C
Test: purified protein
Conditions: 1 mM (S)-pyrethrolone, 50 mM Tris-HCl pH 7.5, 25 °C, 10 min

B1: TcGLIP (Tanacetum cinerariifolium) (protein)
chain: SQQAAALFIFGDSVFDPGNNNHINTHVNFKANFWPYGQSYFSSPTGRFSDGRIIPDFIAEYASLPIIPAYLEPNNDFTHGANFASAGAGALIASHAGLAVGLQTQLRYFGDLVDHYRQNLGDIKSRQLLSDAVYLFSCGGNDYQSPYYPYTQEQYVDIVIGNMTNVIKGIYEKGGRKFGVVNVPLIGCWPGMRAKQPGNTCNTEVDELTRLHNQAFAKRLEQLEKQLEGFVYAKFDLSTAILNRMKNPSKYGFKEGESACCGSGPFGGNYDCGRIKEFGLCDNATEYFFFDPFHPNELASRQFAEMFWDGDSMVTQPYNLKALFEGKPSTKYLPNDEL
B1 gave a Km of 520 ± 95 µM, a Vmax of 0.14 µmol/min/mg and a Vmax/Km of 269 µL/min/mg.
